From PMC4108472, “Characterization of a Novel BCHE “Silent” Allele: Point Mutation (p.Val204Asp) Causes Loss of Activity and Prolonged Apnea with Suxamethonium” (PLoS ONE, 2014)
Several values for one entry are separate records, joined by “and”; a condition that tells them apart may be missing. Equal entries are not always repeated.

Target: the molecule itself
Test: native gel or EMSA; nondenaturing gradient gel (4–30%) of plasma samples (5 µL/lane), bands stained for BChE activity with BTC as the substrate

B1: Butyrylcholinesterase (usual, wild-type) of human plasma (enzyme, human (endogenous in plasma), UniProt P06276 29-602, looked up)
chain: EDDIIIATKNGKVRGMNLTVFGGTVTAFLGIPYAQPPLGRLRFKKPQSLTKWSDIWNATKYANSCCQNIDQSFPGFHGSEMWNPNTDLSEDCLYLNVWIPAPKPKNATVLIWIYGGGFQTGTSSLHVYDGKFLARVERVIVVSMNYRVGALGFLALPGNPEAPGNMGLFDQQLALQWVQKNIAAFGGNPKSVTLFGESAGAASVSLHLLSPGSHSLFTRAILQSGSFNAPWAVTSLYEARNRTLNLAKLTGCSRENETEIIKCLRNKDPQEILLNEAFVVPYGTPLSVNFGPTVDGDFLTDMPDILLELGQFKKTQILVGVNKDEGTAFLVYGAPGFSKDNNSIITRKEFQEGLKIFFPGVSEFGKESILFHYTDWVDDQRPENYREALGDVVGDYNFICPALEFTKKFSEWGNNAFFYYFEHRSSKLPWPEWMGVMHGYEIEFVFGLPLERRDNYTKAEEILSRSIVKRWANFAKYGNPNETQNNSTSWPVFKSTEQKYLTLNTESTRIMTKLRAQQCRFWTSFFPKVLEMTGNIDEAEWEWKAGFHRWNNYMMDWKNQFNDYTSKKESCVGL
notes: Butyrylcholinesterase, human, Swissprot P06276, as it circulates in plasma; Subunit of the plasma enzyme; Plasma of the heterozygous family members also holds variant subunits (p.Val204Asp; p.Asp70Gly-p.Ala539Thr); also called BChE; pseudocholinesterase; source: endogenous, human plasma (genotype UU control and family members' plasma)
With B1 the “stoichiometry N” value was 4 and 2.
